Measurements as given in article PMC7504102.

Target: unfused negative control SGFP2
Test: pull-down; SGFP2-fused proteins held on protein G magnetic beads via anti-GFP pAb; incubated with Nluc-ALG-2 (300 ng/mL) in buffer HKM, 0.2% Nonidet P-40, 0.1% gelatin, 100 μM CaCl2, 2 h, 4 °C; bound luciferase activity relative to Sec31A-p (100%)

Chain of nanoluciferase (NanoLuc, Nluc)-fused ALG-2 (O75340 whole entry, the tested form may be a part): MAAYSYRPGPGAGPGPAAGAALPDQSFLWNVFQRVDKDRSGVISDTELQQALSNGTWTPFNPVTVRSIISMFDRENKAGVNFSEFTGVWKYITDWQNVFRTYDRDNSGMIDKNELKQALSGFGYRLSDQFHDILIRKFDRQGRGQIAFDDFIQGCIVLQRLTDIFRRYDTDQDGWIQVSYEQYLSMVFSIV

In the case of “nanoluciferase (NanoLuc, Nluc)-fused ALG-2 (from UniProt O75340 1-191) (natural protein)”, the binding activity relative to Sec31A-p (100%) is reported as 0.18%.
